Measured values published in US20220040297A1 (Chugai, published 2022).
Residue numbers refer to the chain shown, from its start. In names and notes the source's numbering stands. Values belong to the binder of their own block, whether it stands above or below them.

Experiments:
[1] = biological target: T1, biotin-labeled human CD154 (human, UniProt P29965 113-261, limits assumed, biotin-labeled); test: ECL competition: biotinylated CD154, CD3ε homodimer as competitor [1]
T1 construct: also called biotinylated human CD154
T1 sequence (looked up): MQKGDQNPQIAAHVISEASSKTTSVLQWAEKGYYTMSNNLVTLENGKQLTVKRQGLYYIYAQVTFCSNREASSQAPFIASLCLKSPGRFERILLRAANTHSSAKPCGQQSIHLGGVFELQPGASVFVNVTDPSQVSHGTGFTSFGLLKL
Method: Next, each obtained IgG was evaluated for its binding to CD3 and human CD154 at the same time by the competition method (electrochemiluminescence method (ECL method)).
A TBST solution containing 0.5% BSA (referred to as a blocking solution; the TBST solution was TBS (manufactured by Takara Bio Inc.) supplemented with 0.1% Tween 20) was added at 150 μL/well to streptavidin plate (MSD K.K.), and the plate was incubated at room temperature for 1 hour or longer. After removal of the blocking solution, each well was washed three times with 250 μL of a TBST solution. The antibody-antigen complex solution was added thereto at 50 L/well, and the plate was incubated at room temperature for 1 hour so that the biotinylated antigen-antibody-detection sulfo-tag antibody complex solution bound via the biotinylated antigen to the streptavidin plate. After removal of the antibody-antigen complex solution, each well was washed three times with a TBST solution, and a solution of 4× READ buffer (MSD K.K.) diluted 2-fold with water was added thereto at 150 μL/well, followed by the detection of the luminescence signal of the sulfo-tag using Sector Imager 2400 (MSD K.K.).

CD3ε homodimer protein [2] = biological target: CD3ε homodimer protein (human, UniProt P07766 23-126, limits assumed); test: SPR Biacore T200, CD3e homodimer on CM4 chip, antibody as analyte, 25 C
Target sequence in this assay (P07766 23-126 limits assumed): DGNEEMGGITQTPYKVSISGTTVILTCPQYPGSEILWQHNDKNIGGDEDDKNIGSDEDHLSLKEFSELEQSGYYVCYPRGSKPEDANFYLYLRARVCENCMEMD
Method: An appropriate amount of CD3ε homodimer protein was immobilized onto Sensor chip CM4 (GE Healthcare Japan Corp.) by the amine coupling method. Then, the antibody having an appropriate concentration was injected thereto as an analyte and allowed to interact with the CD3ε homodimer protein on the sensor chip. Then, the sensor chip was regenerated by the injection of 10 mmol/L glycine-HCl (pH 1.5). The assay was conducted at 25° C., and HBS-EP+ (GE Healthcare Japan Corp.) was used as a running buffer. […] Each parameter was calculated using Biacore T200 Evaluation Software (GE Healthcare Japan Corp.).
Specifically, when the amount of the antibody comprising CE115HA000 bound was defined as X and the amount of the H chain one-amino acid altered form bound was defined as Y, a value of Z (ratio of amounts bound)=Y/X was used.

CD3ε homodimer protein [3] = biological target: T2, CD3ε homodimer protein (human, UniProt P07766 23-126, limits assumed); test: SPR (Biacore T200, 25°C); CD3ε homodimer immobilized on CM4, one-arm antibody as analyte
T2 construct: also called human CD3ε homodimer protein; CD3e homodimer
T2 sequence (P07766 23-126 limits assumed): as above

Kd (CD3ε homodimer protein [3]): 0.026 µM
B8: NNS6f73 (antibody)
heavy: QVQLVESGGGLVQPGRSLRLSCAASGFTFSNAWMHWVRQAPGKGLEWVAQIKDKSNNYATYYAESVKGRFTISRDDSKNSIYLQMNSLKTEDTAVYYCRYVHYAAWVVGVRYYGVDAWGQGTTVTVSSASTKGPSVFPLAPSSKSTSGGTAALGCLVKDYFPEPVTVSWNSGALTSGVHTFPAVLQSSGLYSLSSVVTVPSSSLGTQTYICNVNHKPSNTKVDKKVEPKSCDKTHTCPPCPAPEAAGGPSVFLFPPKPKDTLMISRTPEVTCVVVDVSHEDPEVKFNWYVDGVEVHNAKTKPREEQYASTYRVVSVLTVLHQDWLNGKEYKCKVSNKALPAPIEKTISKAKGQPREPQVYTLPPSRCELTKNQVSLSCAVKGFYPSDIAVEWESNGQPENNYKTTPPVLDSDGSFFLVSKLTVDKSRWQQGNVFSCSVMHEALHNHYTQKSLSLSPDYKDDDDK
chain: EPKSSDKTHTCPPCPAPELLGGPSVFLFPPKPKDTLMISRTPEVTCVVVDVSHEDPEVKFNWYVDGVEVHNAKTKPREEQYNSTYRVVSVLTVLHQDWLNGKEYKCKVSNKALPAPIEKTISKAKGQPREPQVCTLPPSRDELTKNQVSLWCLVKGFYPSDIAVEWESNGQPENNYKTTPPVLDSDGSFFLYSKLTVDKSRWQQGNVFSCSVMHEALHNRYTQKSLSLSP
light: DIVMTQSPLSLPVTPGEPASISCRSSQSLVHSNRNTYLHWYQQKPGQAPRLLIYKVSNRFSGVPDRFSGSGSGTDFTLKISRVEAEDVGVYYCGQGTQVPYTFGQGTKLEIKRTVAAPSVFIFPPSDEQLKSGTASVVCLLNNFYPREAKVQWKVDNALQSGNSQESVTEQDSKDSTYSLSSTLTLSKADYEKHKVYACEVTHQGLSSPVTKSFNRGEC
notes: one-arm antibody

KD ratio (KD of CE115HA000/KD of altered form) (CD3ε homodimer protein [2]): 23
B10: CE115HA000 W33A one-arm antibody (antibody, human IgG1, kappa, L234A L235A, N297A, name in Kabat numbering)
heavy: QVQLVESGGGVVQPGRSLRLSCAASGFTFSNAAMHWVRQAPGKGLEWVAQIKAKSNNYATYYAESVKGRFTISRDDSKNSLYLQMNSLKTEDTAVYYCRYVHYGAYYGVDAWGQGTTVTVSSASTKGPSVFPLAPSSKSTSGGTAALGCLVKDYFPEPVTVSWNSGALTSGVHTFPAVLQSSGLYSLSSVVTVPSSSLGTQTYICNVNHKPSNTKVDKKVEPKSCDKTHTCPPCPAPEAAGGPSVFLFPPKPKDTLMISRTPEVTCVVVDVSHEDPEVKFNWYVDGVEVHNAKTKPREEQYASTYRVVSVLTVLHQDWLNGKEYKCKVSNKALPAPIEKTISKAKGQPREPQVYTLPPSRCELTKNQVSLSCAVKGFYPSDIAVEWESNGQPENNYKTTPPVLDSDGSFFLVSKLTVDKSRWQQGNVFSCSVMHEALHNHYTQKSLSLSPDYKDDDDK
chain: B8 chain
light: B8 light

KD ratio (KD of CE115HA000/KD of altered form) (CD3ε homodimer protein [2]): 9.9
B11: CE115HA000 T57N one-arm antibody (antibody, human IgG1, kappa, L234A L235A, N297A, name in Kabat numbering)
heavy: B10 heavy with A33W, T60N
chain: B8 chain
light: B8 light

KD ratio (KD of CE115HA000/KD of altered form) (CD3ε homodimer protein [2]): 19.8
B12: CE115HA000 K52E one-arm antibody (antibody, human IgG1, kappa, L234A L235A, N297A, name in Kabat numbering)
heavy: B10 heavy with A33W, K52E
chain: B8 chain
light: B8 light

KD ratio (KD of CE115HA000/KD of altered form) (CD3ε homodimer protein [2]): 0.68
B13: CE115HA000 W33F one-arm antibody (antibody, human IgG1, kappa, L234A L235A, N297A, name in Kabat numbering)
heavy: B10 heavy with A33F
chain: B8 chain
light: B8 light

KD ratio (KD of CE115HA000/KD of altered form) (CD3ε homodimer protein [2]): 64.7
B14: CE115HA000 Y97D one-arm antibody (antibody, human IgG1, kappa, L234A L235A, N297A, name in Kabat numbering)
heavy: B10 heavy with A33W, Y103D
chain: B8 chain
light: B8 light

KD ratio (KD of CE115HA000/KD of altered form) (CD3ε homodimer protein [2]): 0.67
B15: CE115HA000 S52cA one-arm antibody (antibody, human IgG1, kappa, L234A L235A, N297A, name in Kabat numbering)
heavy: B10 heavy with A33W, S55A
chain: B8 chain
light: B8 light

Kd (CD3ε homodimer protein [3]): 0.15 µM
B17: NNS6f72 (antibody)
heavy: B8 heavy with W106E, V107G, V108I, G109W, V110W, R111G
chain: B8 chain
light: B8 light
notes: one-arm antibody

KD ratio (KD of CE115HA000/KD of altered form) (CD3ε homodimer protein [2]): 0.34
B18: CE115HA000 N76S one-arm antibody (antibody, human IgG1, kappa, L234A L235A, N297A, name in Kabat numbering)
heavy: B10 heavy with A33W, N79S
chain: B8 chain
light: B8 light

KD ratio (KD of CE115HA000/KD of altered form) (CD3ε homodimer protein [2]): 6.74
B19: CE115HA000 Y59A one-arm antibody (antibody, human IgG1, kappa, L234A L235A, N297A, name in Kabat numbering)
heavy: B10 heavy with A33W, Y62A
chain: B8 chain
light: B8 light

The next lines start with the binder.

B1: 154R4B07#1 (antibody, human IgG1, kappa, L234A L235A, N297A)
heavy: QVQLVESGGGLVQPGRSLRLSCAASGFTFSNAWMHWVRQAPGKGLEWVAQIKDRGNNYAAYYAESVKGRFTISRDDSKNSIYLQMNSLKTEDTAVYYCRYVHYGSYFFASFYFGVDIWGQGTTVTVSSASTKGPSVFPLAPSSKSTSGGTAALGCLVKDYFPEPVTVSWNSGALTSGVHTFPAVLQSSGLYSLSSVVTVPSSSLGTQTYICNVNHKPSNTKVDKKVEPKSCDKTHTCPPCPAPEAAGGPSVFLFPPKPKDTLMISRTPEVTCVVVDVSHEDPEVKFNWYVDGVEVHNAKTKPREEQYASTYRVVSVLTVLHQDWLNGKEYKCKVSNKALPAPIEKTISKAKGQPREPQVYTLPPSRCELTKNQVSLSCAVKGFYPSDIAVEWESNGQPENNYKTTPPVLDSDGSFFLVSKLTVDKSRWQQGNVFSCSVMHEALHNHYTQKSLSLSPDYKDDDDK
chain: B8 chain
light: B8 light
notes: One-arm antibody
Relative ECL reaction (to no antigen coating), CD3ε[+] [1]: 1

B2: 154R3A01#2 (antibody, human IgG1, kappa, L234A L235A, N297A)
heavy: QVQLVESGGGLVQPGRSLRLSCAASGFTFSNAWMHWVRQAPGKGLEWVAQIKDRVNQYANYYAESVKGRLTISRDDSKNSIYLQMNSLKTEDTAVYYCRYVHYGLTGYFSGQGGVDAWGQGTTVTVSSASTKGPSVFPLAPSSKSTSGGTAALGCLVKDYFPEPVTVSWNSGALTSGVHTFPAVLQSSGLYSLSSVVTVPSSSLGTQTYICNVNHKPSNTKVDKKVEPKSCDKTHTCPPCPAPEAAGGPSVFLFPPKPKDTLMISRTPEVTCVVVDVSHEDPEVKFNWYVDGVEVHNAKTKPREEQYASTYRVVSVLTVLHQDWLNGKEYKCKVSNKALPAPIEKTISKAKGQPREPQVYTLPPSRCELTKNQVSLSCAVKGFYPSDIAVEWESNGQPENNYKTTPPVLDSDGSFFLVSKLTVDKSRWQQGNVFSCSVMHEALHNHYTQKSLSLSPDYKDDDDK
chain: B8 chain
light: B8 light
notes: One-arm antibody
Relative ECL reaction (to no antigen coating), CD3ε[+] [1]: 4

B3: 154R3A01#1 (antibody, human IgG1, kappa, L234A L235A, N297A)
heavy: B2 heavy with L70F
chain: B8 chain
light: B8 light
notes: One-arm antibody
Relative ECL reaction (to no antigen coating), CD3ε[+] [1]: 21

B4: CE115HA000 A102P one-arm antibody (antibody, human IgG1, kappa, L234A L235A, N297A, name in Kabat numbering)
heavy: B10 heavy with A33W, A111P
chain: B8 chain
light: B8 light
KD ratio (KD of CE115HA000/KD of altered form) (CD3ε homodimer protein [2]): 3.61

B5: CE115HA000 D101R one-arm antibody (antibody, human IgG1, kappa, L234A L235A, N297A, name in Kabat numbering)
heavy: B10 heavy with A33W, D110R
chain: B8 chain
light: B8 light
KD ratio (KD of CE115HA000/KD of altered form) (CD3ε homodimer protein [2]): 5.66

B6: CE115HA000 I51E one-arm antibody (antibody, human IgG1, kappa, L234A L235A, N297A, name in Kabat numbering)
heavy: B10 heavy with A33W, I51E
chain: B8 chain
light: B8 light
KD ratio (KD of CE115HA000/KD of altered form) (CD3ε homodimer protein [2]): 0.84

B7: 154R4F08#1 (antibody, human IgG1, kappa, L234A L235A, N297A)
heavy: B1 heavy with R16H
chain: B8 chain
light: B8 light
notes: One-arm antibody
Relative ECL reaction (to no antigen coating), CD3ε[+] [1]: 1

B9: CE115HA000 G98D one-arm antibody (antibody, human IgG1, kappa, L234A L235A, N297A, name in Kabat numbering)
heavy: B10 heavy with A33W, G104D
chain: B8 chain
light: B8 light
KD ratio (KD of CE115HA000/KD of altered form) (CD3ε homodimer protein [2]): 2.35

B16: CE115HA000 E61Q one-arm antibody (antibody, human IgG1, kappa, L234A L235A, N297A, name in Kabat numbering)
heavy: B10 heavy with A33W, E64Q
chain: B8 chain
light: B8 light
KD ratio (KD of CE115HA000/KD of altered form) (CD3ε homodimer protein [2]): 0.85
